Experimental data: patent publication US20220306695A1, “COMPSTATIN ANALOGUES AND THEIR MEDICAL USES” (priority 2019, published 2022)
Starred links: 1 amine or outer side, 2 acyl side, 3 side chain; linkers in the order of their positions; H or OH if unused. Positions of bridges follow the written chain, without caps; N, C: chain ends. Non-standard residues stand in square brackets, D forms with d. Groups on a side chain read outwards from the residue. *: point of attachment. C20 diacid = O=C(O)CCCCCCCCCCCCCCCCCCC(=O)*; Trp(1-Me) = Cn1cc(C[C@H](N)C(=O)O)c2ccccc21; C18 diacid = O=C(O)CCCCCCCCCCCCCCCCC(=O)*; C16 diacid = O=C(O)CCCCCCCCCCCCCCC(=O)*; γGlu = O=C(O)[C@H](CCC(=O)[*:2])N[*:1]; AEEA = NCCOCCOCC(=O)O; Sar = CNCC(=O)O

B1: Compound 152 (peptide)
peptide: SEFCIWQDWGEHRAGEGEXXK
modifications: not fully specified; N-acetyl; C-terminal amide; gamma-cystathionine (Ctt1) thioether bridge hCys4-A14 (hCys written C); W6 is 1-Me-Trp; G15 is Sar; X19 and X20 are Peg3; K21 side chain bears [17-carboxy-heptadecanoyl][γGlu]G[γGlu]
B2: Compound 53 (peptide)
peptide: Ac-EGSAFCI[Trp(1-Me)]QDWGEHRC[Sar]E-NH2
modifications: disulfide 6-16
SMILES: CC[C@H](C)[C@@H]1NC(=O)[C@@H](NC(=O)[C@H](Cc2ccccc2)NC(=O)[C@H](C)NC(=O)[C@H](CO)NC(=O)CNC(=O)[C@H](CCC(=O)O)NC(C)=O)CSSC[C@@H](C(=O)N(C)CC(=O)N[C@@H](CCC(=O)O)C(N)=O)NC(=O)[C@H](CCCNC(=N)N)NC(=O)[C@H](Cc2c[nH]cn2)NC(=O)[C@H](CCC(=O)O)NC(=O)CNC(=O)[C@H](Cc2c[nH]c3ccccc23)NC(=O)[C@H](CC(=O)O)NC(=O)[C@H](CCC(N)=O)NC(=O)[C@H](Cc2cn(C)c3ccccc23)NC1=O
B3: Compound 95 (peptide)
peptide: ICIWQDWGEHRCTEGK
modifications: N-acetyl; C-terminal amide; disulfide C2-C12; K16 side chain bears (15-carboxy-pentadecanoyl)-[(Piperazine-1-yl)-acetyl][Peg3][Peg3]
B4: Compound 5 (peptide)
peptide: Ac-ICIWQDWGKHRCT-NH2
modifications: disulfide 2-12
SMILES: CC[C@H](C)[C@H](NC(C)=O)C(=O)N[C@H]1CSSC[C@@H](C(=O)N[C@H](C(N)=O)[C@@H](C)O)NC(=O)[C@H](CCCNC(=N)N)NC(=O)[C@H](Cc2c[nH]cn2)NC(=O)[C@H](CCCCN)NC(=O)CNC(=O)[C@H](Cc2c[nH]c3ccccc23)NC(=O)[C@H](CC(=O)O)NC(=O)[C@H](CCC(N)=O)NC(=O)[C@H](Cc2c[nH]c3ccccc23)NC(=O)[C@H]([C@@H](C)CC)NC1=O
B5: Compound 118 (peptide)
peptide: Ac-SEYCI[Trp(1-Me)]QDWGEHRC[Sar]EGAK([AEEA-γGlu-AEEA-Gly-γGlu-C18 diacid])-NH2
modifications: disulfide 4-14
SMILES: CC[C@H](C)[C@@H]1NC(=O)[C@@H](NC(=O)[C@H](Cc2ccc(O)cc2)NC(=O)[C@H](CCC(=O)O)NC(=O)[C@H](CO)NC(C)=O)CSSC[C@@H](C(=O)N(C)CC(=O)N[C@@H](CCC(=O)O)C(=O)NCC(=O)N[C@@H](C)C(=O)N[C@@H](CCCCNC(=O)COCCOCCNC(=O)CC[C@H](NC(=O)COCCOCCNC(=O)CNC(=O)CC[C@H](NC(=O)CCCCCCCCCCCCCCCCC(=O)O)C(=O)O)C(=O)O)C(N)=O)NC(=O)[C@H](CCCNC(=N)N)NC(=O)[C@H](Cc2c[nH]cn2)NC(=O)[C@H](CCC(=O)O)NC(=O)CNC(=O)[C@H](Cc2c[nH]c3ccccc23)NC(=O)[C@H](CC(=O)O)NC(=O)[C@H](CCC(N)=O)NC(=O)[C@H](Cc2cn(C)c3ccccc23)NC1=O
B6: Compound 120 (peptide)
peptide: Ac-SEFCI[Trp(1-Me)]QEWGEHRC[Sar]EGAK([AEEA-γGlu-AEEA-Gly-γGlu-C18 diacid])-NH2
modifications: disulfide 4-14
SMILES: CC[C@H](C)[C@@H]1NC(=O)[C@@H](NC(=O)[C@H](Cc2ccccc2)NC(=O)[C@H](CCC(=O)O)NC(=O)[C@H](CO)NC(C)=O)CSSC[C@@H](C(=O)N(C)CC(=O)N[C@@H](CCC(=O)O)C(=O)NCC(=O)N[C@@H](C)C(=O)N[C@@H](CCCCNC(=O)COCCOCCNC(=O)CC[C@H](NC(=O)COCCOCCNC(=O)CNC(=O)CC[C@H](NC(=O)CCCCCCCCCCCCCCCCC(=O)O)C(=O)O)C(=O)O)C(N)=O)NC(=O)[C@H](CCCNC(=N)N)NC(=O)[C@H](Cc2c[nH]cn2)NC(=O)[C@H](CCC(=O)O)NC(=O)CNC(=O)[C@H](Cc2c[nH]c3ccccc23)NC(=O)[C@H](CCC(=O)O)NC(=O)[C@H](CCC(N)=O)NC(=O)[C@H](Cc2cn(C)c3ccccc23)NC1=O
B7: Compound 94 (peptide)
peptide: Ac-ICIWQDWGEHRCTEGEK([AEEA-AEEA-γGlu-C16 diacid])-NH2
modifications: disulfide 2-12
SMILES: CC[C@H](C)[C@H](NC(C)=O)C(=O)N[C@H]1CSSC[C@@H](C(=O)N[C@H](C(=O)N[C@@H](CCC(=O)O)C(=O)NCC(=O)N[C@@H](CCC(=O)O)C(=O)N[C@@H](CCCCNC(=O)COCCOCCNC(=O)COCCOCCNC(=O)CC[C@H](NC(=O)CCCCCCCCCCCCCCC(=O)O)C(=O)O)C(N)=O)[C@@H](C)O)NC(=O)[C@H](CCCNC(=N)N)NC(=O)[C@H](Cc2c[nH]cn2)NC(=O)[C@H](CCC(=O)O)NC(=O)CNC(=O)[C@H](Cc2c[nH]c3ccccc23)NC(=O)[C@H](CC(=O)O)NC(=O)[C@H](CCC(N)=O)NC(=O)[C@H](Cc2c[nH]c3ccccc23)NC(=O)[C@H]([C@@H](C)CC)NC1=O
B8: Compound 101 (peptide)
peptide: Ac-EGSAICIWQDWGEHRCTEGK([γGlu-C16 diacid])-NH2
modifications: disulfide 6-16
SMILES: CC[C@H](C)[C@H](NC(=O)[C@H](C)NC(=O)[C@H](CO)NC(=O)CNC(=O)[C@H](CCC(=O)O)NC(C)=O)C(=O)N[C@H]1CSSC[C@@H](C(=O)N[C@H](C(=O)N[C@@H](CCC(=O)O)C(=O)NCC(=O)N[C@@H](CCCCNC(=O)CC[C@H](NC(=O)CCCCCCCCCCCCCCC(=O)O)C(=O)O)C(N)=O)[C@@H](C)O)NC(=O)[C@H](CCCNC(=N)N)NC(=O)[C@H](Cc2c[nH]cn2)NC(=O)[C@H](CCC(=O)O)NC(=O)CNC(=O)[C@H](Cc2c[nH]c3ccccc23)NC(=O)[C@H](CC(=O)O)NC(=O)[C@H](CCC(N)=O)NC(=O)[C@H](Cc2c[nH]c3ccccc23)NC(=O)[C@H]([C@@H](C)CC)NC1=O
B9: Compound 106 (peptide)
peptide: Ac-SAYCI[Trp(1-Me)]QDWGEHRC[Sar]EK([γGlu-Gly-γGlu-C18 diacid])-NH2
modifications: disulfide 4-14
SMILES: CC[C@H](C)[C@@H]1NC(=O)[C@@H](NC(=O)[C@H](Cc2ccc(O)cc2)NC(=O)[C@H](C)NC(=O)[C@H](CO)NC(C)=O)CSSC[C@@H](C(=O)N(C)CC(=O)N[C@@H](CCC(=O)O)C(=O)N[C@@H](CCCCNC(=O)CC[C@H](NC(=O)CNC(=O)CC[C@H](NC(=O)CCCCCCCCCCCCCCCCC(=O)O)C(=O)O)C(=O)O)C(N)=O)NC(=O)[C@H](CCCNC(=N)N)NC(=O)[C@H](Cc2c[nH]cn2)NC(=O)[C@H](CCC(=O)O)NC(=O)CNC(=O)[C@H](Cc2c[nH]c3ccccc23)NC(=O)[C@H](CC(=O)O)NC(=O)[C@H](CCC(N)=O)NC(=O)[C@H](Cc2cn(C)c3ccccc23)NC1=O
B10: Compound 96 (peptide)
peptide: Ac-ICIWQDWGEHRCTEGK([AEEA-AEEA-γGlu-C18 diacid])-NH2
modifications: disulfide 2-12
SMILES: CC[C@H](C)[C@H](NC(C)=O)C(=O)N[C@H]1CSSC[C@@H](C(=O)N[C@H](C(=O)N[C@@H](CCC(=O)O)C(=O)NCC(=O)N[C@@H](CCCCNC(=O)COCCOCCNC(=O)COCCOCCNC(=O)CC[C@H](NC(=O)CCCCCCCCCCCCCCCCC(=O)O)C(=O)O)C(N)=O)[C@@H](C)O)NC(=O)[C@H](CCCNC(=N)N)NC(=O)[C@H](Cc2c[nH]cn2)NC(=O)[C@H](CCC(=O)O)NC(=O)CNC(=O)[C@H](Cc2c[nH]c3ccccc23)NC(=O)[C@H](CC(=O)O)NC(=O)[C@H](CCC(N)=O)NC(=O)[C@H](Cc2c[nH]c3ccccc23)NC(=O)[C@H]([C@@H](C)CC)NC1=O
B11: Compound 97 (peptide)
peptide: Ac-ICIWQDWGEHRCTEGEK([AEEA-AEEA-γGlu-C18 diacid])-NH2
modifications: disulfide 2-12
SMILES: CC[C@H](C)[C@H](NC(C)=O)C(=O)N[C@H]1CSSC[C@@H](C(=O)N[C@H](C(=O)N[C@@H](CCC(=O)O)C(=O)NCC(=O)N[C@@H](CCC(=O)O)C(=O)N[C@@H](CCCCNC(=O)COCCOCCNC(=O)COCCOCCNC(=O)CC[C@H](NC(=O)CCCCCCCCCCCCCCCCC(=O)O)C(=O)O)C(N)=O)[C@@H](C)O)NC(=O)[C@H](CCCNC(=N)N)NC(=O)[C@H](Cc2c[nH]cn2)NC(=O)[C@H](CCC(=O)O)NC(=O)CNC(=O)[C@H](Cc2c[nH]c3ccccc23)NC(=O)[C@H](CC(=O)O)NC(=O)[C@H](CCC(N)=O)NC(=O)[C@H](Cc2c[nH]c3ccccc23)NC(=O)[C@H]([C@@H](C)CC)NC1=O
B12: Compound 7 (peptide)
peptide: Ac-ICIWQKWGEHRCT-NH2
modifications: disulfide 2-12
SMILES: CC[C@H](C)[C@H](NC(C)=O)C(=O)N[C@H]1CSSC[C@@H](C(=O)N[C@H](C(N)=O)[C@@H](C)O)NC(=O)[C@H](CCCNC(=N)N)NC(=O)[C@H](Cc2c[nH]cn2)NC(=O)[C@H](CCC(=O)O)NC(=O)CNC(=O)[C@H](Cc2c[nH]c3ccccc23)NC(=O)[C@H](CCCCN)NC(=O)[C@H](CCC(N)=O)NC(=O)[C@H](Cc2c[nH]c3ccccc23)NC(=O)[C@H]([C@@H](C)CC)NC1=O
B13: Compound 98 (peptide)
peptide: Ac-ICIWQDWGEHRCTEGK([AEEA-AEEA-γGlu-C20 diacid])-NH2
modifications: disulfide 2-12
SMILES: CC[C@H](C)[C@H](NC(C)=O)C(=O)N[C@H]1CSSC[C@@H](C(=O)N[C@H](C(=O)N[C@@H](CCC(=O)O)C(=O)NCC(=O)N[C@@H](CCCCNC(=O)COCCOCCNC(=O)COCCOCCNC(=O)CC[C@H](NC(=O)CCCCCCCCCCCCCCCCCCC(=O)O)C(=O)O)C(N)=O)[C@@H](C)O)NC(=O)[C@H](CCCNC(=N)N)NC(=O)[C@H](Cc2c[nH]cn2)NC(=O)[C@H](CCC(=O)O)NC(=O)CNC(=O)[C@H](Cc2c[nH]c3ccccc23)NC(=O)[C@H](CC(=O)O)NC(=O)[C@H](CCC(N)=O)NC(=O)[C@H](Cc2c[nH]c3ccccc23)NC(=O)[C@H]([C@@H](C)CC)NC1=O

target: Human C3 (human, UniProt P01024 23-1663); assay: cell-based or functional assay
Sequence (P01024 23-1663 limits assumed): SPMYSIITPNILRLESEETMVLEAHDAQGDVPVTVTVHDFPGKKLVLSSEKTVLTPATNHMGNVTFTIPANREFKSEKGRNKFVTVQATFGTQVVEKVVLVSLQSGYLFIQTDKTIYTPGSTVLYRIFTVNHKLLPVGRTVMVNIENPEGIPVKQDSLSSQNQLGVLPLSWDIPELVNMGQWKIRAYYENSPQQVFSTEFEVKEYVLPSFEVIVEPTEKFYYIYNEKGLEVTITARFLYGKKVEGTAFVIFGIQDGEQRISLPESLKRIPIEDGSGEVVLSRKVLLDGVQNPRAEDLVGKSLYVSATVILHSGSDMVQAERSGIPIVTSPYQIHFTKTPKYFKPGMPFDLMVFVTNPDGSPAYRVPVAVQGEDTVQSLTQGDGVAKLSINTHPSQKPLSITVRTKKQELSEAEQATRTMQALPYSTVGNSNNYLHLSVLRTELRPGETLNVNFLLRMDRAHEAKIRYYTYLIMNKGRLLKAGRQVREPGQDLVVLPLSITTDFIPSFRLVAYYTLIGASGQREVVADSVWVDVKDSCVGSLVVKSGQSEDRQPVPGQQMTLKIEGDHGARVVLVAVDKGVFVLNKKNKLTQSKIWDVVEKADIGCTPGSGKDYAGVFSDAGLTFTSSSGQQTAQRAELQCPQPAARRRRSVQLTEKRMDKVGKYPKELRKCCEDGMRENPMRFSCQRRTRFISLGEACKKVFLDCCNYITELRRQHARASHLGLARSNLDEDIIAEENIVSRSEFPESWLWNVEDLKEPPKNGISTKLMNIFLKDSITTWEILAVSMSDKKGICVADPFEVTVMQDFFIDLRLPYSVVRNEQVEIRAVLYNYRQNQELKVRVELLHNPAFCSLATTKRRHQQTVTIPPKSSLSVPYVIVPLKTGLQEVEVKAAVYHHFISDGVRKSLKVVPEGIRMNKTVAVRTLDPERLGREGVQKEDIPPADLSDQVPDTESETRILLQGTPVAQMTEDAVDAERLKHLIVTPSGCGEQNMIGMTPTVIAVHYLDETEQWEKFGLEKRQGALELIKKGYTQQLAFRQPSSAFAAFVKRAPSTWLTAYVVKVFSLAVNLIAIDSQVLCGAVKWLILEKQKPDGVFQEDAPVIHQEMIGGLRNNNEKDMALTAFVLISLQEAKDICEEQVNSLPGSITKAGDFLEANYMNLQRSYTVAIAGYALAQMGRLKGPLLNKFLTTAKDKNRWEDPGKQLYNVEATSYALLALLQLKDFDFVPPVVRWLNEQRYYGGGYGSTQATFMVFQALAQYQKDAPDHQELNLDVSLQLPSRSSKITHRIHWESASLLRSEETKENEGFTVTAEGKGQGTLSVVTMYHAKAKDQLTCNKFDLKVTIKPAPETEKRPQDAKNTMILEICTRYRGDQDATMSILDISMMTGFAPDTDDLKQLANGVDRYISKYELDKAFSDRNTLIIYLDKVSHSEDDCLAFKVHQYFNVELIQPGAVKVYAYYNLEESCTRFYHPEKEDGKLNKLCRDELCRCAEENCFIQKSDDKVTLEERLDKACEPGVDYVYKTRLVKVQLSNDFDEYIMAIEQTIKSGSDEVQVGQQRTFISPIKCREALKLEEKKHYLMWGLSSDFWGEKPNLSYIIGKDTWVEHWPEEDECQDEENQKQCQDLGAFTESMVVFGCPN

Binder | IC50[nM], inhibition of hemolysis [nM]
Ac-SEFCI[Trp(1-Me)]QDWGEHRC[Sar]EGE[AEEA][AEEA]K([γGlu-Gly-γGlu-C18 diacid])-NH2 (disulfide 4-14) [Compound 123] | < 100
B1 | < 100
B2 | < 100
B3 | < 500
B4 | < 250
Ac-SEFCI[Trp(1-Me)]QDWGEHRC[Sar]EGE[AEEA][AEEA]K([γGlu-Gly-γGlu-C20 diacid])-NH2 (disulfide 4-14, also called comp 128) [Compound 128] | < 100
B5 | < 100
B6 | < 250
B7 | < 500
B8 | < 500
B9 | < 250
B10 | < 1000
B11 | < 250
B12 | < 1000
{15‑Carboxy‑pentadecanoyl}-ESSAICIWQDWGEHRCTEGE-NH2 (disulfide 6-16) [Compound 99] | < 250
B13 | < 500
